Measurements from article PMC6368335, “Inhibition of the Staphylococcus aureus c-di-AMP cyclase DacA by direct interaction with the phosphoglucosamine mutase GlmM” (PLoS Pathogens, 2019).

Tests used:
[1] = target: S. aureus phosphoglucosamine mutase GlmM, tag-less (S. aureus) (UniProt P0C0V7); assay: SEC-SAXS; tag-less DacACD, GlmM and the DacACD/GlmM complex on a Superdex 200 5/150 column coupled to the SAXS beam, 30 mM Tris pH 7.5, 150 mM NaCl; envelopes reconstructed, crystal structures fitted
[2] = target: S. aureus DacA catalytic domain (DacACD), tag-less (S. aureus); assay: as above
[3] = target: S. aureus phosphoglucosamine mutase GlmM, tag-less (S. aureus) (UniProt P0C0V7); assay: SEC-MALS + native MS; purified tag-less DacACD/GlmM complex; SEC-MALS: 100 ul at 18 mg/ml, Superdex 200 Increase 10/300, 30 mM Tris pH 7.5, 150 mM NaCl; native MS: 13.5 uM in 200 mM ammonium acetate
[4] = target: S. aureus phosphoglucosamine mutase GlmM, C-terminally His-tagged (GlmM-His) (S. aureus) (UniProt P0C0V7)
[5] = target: S. aureus phosphoglucosamine mutase GlmM, tag-less (S. aureus) (UniProt P0C0V7); assay: native MS; purified tag-less DacACD/GlmM complex, 13.5 uM in 200 mM ammonium acetate pH 7.5, nanoelectrospray, Waters Synapt QToF; species deconvoluted with Amphitrite; conditions: scale: DacACD per GlmM
[6] = target: S. aureus DacA catalytic domain (DacACD), tag-less (S. aureus); assay: as above
[7] = target: S. aureus DacA catalytic domain (DacACD), tag-less (S. aureus); assay: SEC; tag-less proteins after Ni-NTA and thrombin cleavage on a Superdex 200 10/300 column, UV at 280 nm
[8] = target: S. aureus DacACD-C variant (N166C, T172C), tag-less (S. aureus); assay: as above
[9] = target: S. aureus DacACD-K variant (N166K, T172K), tag-less (S. aureus); assay: as above
[10] = target: the molecule itself; assay: native MS; purified tag-less DacACD/GlmM complex, 13.5 uM in 200 mM ammonium acetate pH 7.5, nanoelectrospray, Waters Synapt QToF; species deconvoluted with Amphitrite

“S. aureus DacA catalytic domain (DacACD), tag-less (domain or fragment)” was tested, and the stoichiometry N (DacACD dimer per GlmM dimer) [1] was 1, the stoichiometry N [2] was 2 and the stoichiometry N (DacACD dimer per GlmM dimer (2:2)) [3] was 1. The GlmM phosphoglucosamine mutase activity (coupled radioactive assay with GlmU), DacA in 5- to 400-fold excess over GlmM; no inhibition at 5- to 50-fold excess [4] was 15%, the stoichiometry N [5] was 1 and the stoichiometry N [6] was 2. It also gave a stoichiometry N [7] of 2.

Molecule “S. aureus DacACD-C variant (N166C, T172C), tag-less (domain or fragment)” has a stoichiometry N [8] of 2.

In the case of “S. aureus DacACD-K variant (N166K, T172K), tag-less (domain or fragment)”, the stoichiometry N [9] is reported as 2.

B1: S. aureus phosphoglucosamine mutase GlmM, tag-less (enzyme)
chain: MGKYFGTDGVRGVANQELTPELAFKLGRYGGYVLAHNKGEKHPRVLVGRDTRVSGEMLESALIAGLISIGAEVMRLGIISTPGVAYLTRDMGAELGVMISASHNPVADNGIKFFGSDGFKLSDEQENEIEALLDQENPELPRPVGNDIVHYSDYFEGAQKYLSYLKSTVDVNFEGLKIALDGANGSTSSLAPFLFGDLEADTETIGCSPDGYNINEKCGSTHPEKLAEKVVETESDFGLAFDGDGDRIIAVDENGQIVDGDQIMFIIGQEMHKNQELNNDMIVSTVMSNLGFYKALEQEGIKSNKTKVGDRYVVEEMRRGNYNLGGEQSGHIVMMDYNTTGDGLLTGIQLASVIKMTGKSLSELAGQMKKYPQSLINVRVTDKYRVEENVDVKEVMTKVEVEMNGEGRILVRPSGTEPLVRVMVEAATDEDAERFAQQIADVVQDKMGLDK
notes: phosphoglucosamine mutase GlmM of S. aureus (LAC* genomic DNA); C-terminal 6-His tag removed at the thrombin site; In the tag-less DacACD/GlmM complex (SASBDB SASDE78) this chain stands with m1; also called tag-less GlmM; source: E. coli BL21 (DE3), purified (Ni-NTA, thrombin cleavage of the His-tag, size exclusion chromatography); not shown: His6, C-terminal, cleaved
In the case of B1, the “stoichiometry N” value [10] is reported as 2.
